From the supplement of paper PMC6379048

Assays:
Test in all cases: EC50 of free RNA motif oligo competing protein binding to immobilised probe
CHERP = target: T1, CHERP (UniProt Q8IWX8)
T1 sequence: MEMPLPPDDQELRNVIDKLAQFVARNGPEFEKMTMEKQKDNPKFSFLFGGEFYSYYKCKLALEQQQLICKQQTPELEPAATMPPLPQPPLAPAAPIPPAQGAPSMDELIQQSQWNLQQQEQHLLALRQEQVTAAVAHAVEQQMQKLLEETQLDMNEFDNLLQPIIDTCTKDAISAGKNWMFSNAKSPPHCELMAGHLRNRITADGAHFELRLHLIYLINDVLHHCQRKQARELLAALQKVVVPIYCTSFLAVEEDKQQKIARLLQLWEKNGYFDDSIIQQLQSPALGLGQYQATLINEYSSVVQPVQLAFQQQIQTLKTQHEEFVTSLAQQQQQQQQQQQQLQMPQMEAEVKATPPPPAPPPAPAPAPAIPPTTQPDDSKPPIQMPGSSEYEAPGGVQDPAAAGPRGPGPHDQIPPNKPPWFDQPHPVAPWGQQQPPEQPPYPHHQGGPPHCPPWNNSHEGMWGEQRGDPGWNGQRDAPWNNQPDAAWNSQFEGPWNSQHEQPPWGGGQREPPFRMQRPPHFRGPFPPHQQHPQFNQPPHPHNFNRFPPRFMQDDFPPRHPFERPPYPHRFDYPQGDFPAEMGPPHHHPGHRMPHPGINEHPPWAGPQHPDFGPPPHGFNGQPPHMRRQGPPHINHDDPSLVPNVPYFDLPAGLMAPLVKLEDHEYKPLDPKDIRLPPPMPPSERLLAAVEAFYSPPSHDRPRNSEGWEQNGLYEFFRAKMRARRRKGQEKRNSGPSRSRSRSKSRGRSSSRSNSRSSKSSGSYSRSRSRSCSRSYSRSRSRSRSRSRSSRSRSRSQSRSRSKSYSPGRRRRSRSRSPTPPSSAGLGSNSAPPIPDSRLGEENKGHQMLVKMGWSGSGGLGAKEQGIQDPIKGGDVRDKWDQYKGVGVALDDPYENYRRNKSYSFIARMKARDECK
How it was run: (§1)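 Kd was calculated as EC50, taken from a four-parameter log-logistic fit, multiplied by a protein-dependent depletion factor. The assay used HEK293-FT lysate (2.5 mg protein/well) pre-incubated for 1 h at 4°C with free RNA oligos (0 nM to 30 μM), then incubated for 30 min at 4°C with the matching oligos bound through a 5′-amino-C6 linker to NHS-Sepharose beads. Bound proteins were measured by label-free LC-MS/MS and normalised to the control.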

ZNF830 = target: T2, ZNF830 (UniProt Q96NB3)
T2 sequence: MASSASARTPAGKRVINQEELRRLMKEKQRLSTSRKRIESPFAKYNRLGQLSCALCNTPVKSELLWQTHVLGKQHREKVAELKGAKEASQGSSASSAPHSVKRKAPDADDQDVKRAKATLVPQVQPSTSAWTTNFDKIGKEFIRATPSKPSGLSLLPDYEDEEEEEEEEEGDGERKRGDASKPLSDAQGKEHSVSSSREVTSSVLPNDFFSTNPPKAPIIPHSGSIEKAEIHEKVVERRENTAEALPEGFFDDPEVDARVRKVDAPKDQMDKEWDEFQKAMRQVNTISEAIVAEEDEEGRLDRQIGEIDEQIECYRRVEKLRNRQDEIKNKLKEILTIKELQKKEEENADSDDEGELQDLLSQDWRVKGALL
How it was run: as §1

WDR33 = target: T3, WDR33 (UniProt Q9C0J8)
T3 sequence: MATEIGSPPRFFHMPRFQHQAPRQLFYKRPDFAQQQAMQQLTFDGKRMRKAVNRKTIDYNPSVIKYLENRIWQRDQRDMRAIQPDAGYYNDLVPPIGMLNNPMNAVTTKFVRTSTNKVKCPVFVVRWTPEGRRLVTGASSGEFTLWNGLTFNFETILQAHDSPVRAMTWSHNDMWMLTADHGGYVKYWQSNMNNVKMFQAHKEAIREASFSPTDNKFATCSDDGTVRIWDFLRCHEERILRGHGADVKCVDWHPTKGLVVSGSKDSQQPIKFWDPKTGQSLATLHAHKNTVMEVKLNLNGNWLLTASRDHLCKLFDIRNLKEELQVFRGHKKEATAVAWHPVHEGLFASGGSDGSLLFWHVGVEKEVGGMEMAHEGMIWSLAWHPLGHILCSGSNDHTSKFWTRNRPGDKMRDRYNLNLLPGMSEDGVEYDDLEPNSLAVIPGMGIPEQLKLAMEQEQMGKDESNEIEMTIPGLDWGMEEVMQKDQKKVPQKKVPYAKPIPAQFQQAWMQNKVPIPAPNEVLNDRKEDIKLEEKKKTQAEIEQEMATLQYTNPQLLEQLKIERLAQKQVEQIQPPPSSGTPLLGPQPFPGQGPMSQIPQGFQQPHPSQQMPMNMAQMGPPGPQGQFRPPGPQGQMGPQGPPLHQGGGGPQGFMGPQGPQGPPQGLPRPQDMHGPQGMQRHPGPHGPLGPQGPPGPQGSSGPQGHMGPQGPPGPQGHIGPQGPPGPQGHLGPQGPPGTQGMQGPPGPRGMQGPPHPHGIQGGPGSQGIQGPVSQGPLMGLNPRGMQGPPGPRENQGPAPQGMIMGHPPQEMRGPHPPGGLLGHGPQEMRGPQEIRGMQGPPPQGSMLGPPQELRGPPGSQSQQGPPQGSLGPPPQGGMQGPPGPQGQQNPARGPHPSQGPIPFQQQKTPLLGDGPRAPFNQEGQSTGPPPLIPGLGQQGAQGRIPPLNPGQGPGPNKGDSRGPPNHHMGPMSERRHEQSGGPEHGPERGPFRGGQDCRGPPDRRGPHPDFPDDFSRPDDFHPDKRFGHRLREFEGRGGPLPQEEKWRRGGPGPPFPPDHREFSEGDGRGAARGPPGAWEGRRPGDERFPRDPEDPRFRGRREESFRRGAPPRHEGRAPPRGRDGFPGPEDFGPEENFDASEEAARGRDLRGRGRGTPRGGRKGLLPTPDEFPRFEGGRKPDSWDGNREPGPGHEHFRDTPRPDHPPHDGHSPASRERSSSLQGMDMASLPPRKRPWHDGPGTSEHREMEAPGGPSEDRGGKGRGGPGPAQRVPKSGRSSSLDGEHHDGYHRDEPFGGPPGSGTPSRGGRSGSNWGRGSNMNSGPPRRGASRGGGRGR
How it was run: as §1

Row | Sequence | EC50 (CHERP) | EC50 (ZNF830) | EC50 (WDR33)
1 | AAUAAA | 1050 nM | 1030 nM | 64.6 nM
2 | UAUUUAU | 35.1 nM | 378 nM | 960 nM
